Measured values: publication PMC6213131, “Characterization of Properties and Transglycosylation Abilities of Recombinant α-Galactosidase from Cold-Adapted Marine Bacterium Pseudoalteromonas KMM 701 and Its C494N and D451A Mutants” (Marine Drugs, 2018)
Residue numbers refer to the chain shown, from its start. Names and notes keep the numbering of the source.

B1: α-PsGal (Pseudoalteromonas sp. KMM 701) (protein)
chain: MADTKSFYRLDSVNSTVIFDCQSKTPALLYFGKRLSEQTTETMLTQLATRQEVKCAVVEEAPISLSPLLGEGFTGAPGLELVNDSIAWSVGPELQEVRQPSSATVEFVSVDKLRGIEVVHSITLDNNSDVLSAHTVLTNLGDSPLSVNFCAAPTFQLPDSVSKIVSFEGRWSNEFQRQSVDLVLGSFVRENRKGKTSHDVFPGLLVHNENAGEQHGECYGFHLGWSGNNKLRAELLAEGRRYVQMGELLLPGELTLAKGQTYQSPSIYGSFSSEGFSALSRNFHRFVKANLLSQAQREKARPVHYNTWEGIYFDHDVDTLKQLADKVAPLGIERFVLDDGWFKGRRGDNAGLGDWTVDYKIYPDGLSPVIDHVNSLGMEFGIWFEPEMVNPDSDLYRAHPDWVLGSENNEQLSFRNQLVLDLTRSEVVEYLYKAIDDILVEYPTIKYIKWDMNRDINHAGNFDGKPAVHQQTLALYRLIDRIKAAHPGLEIESCSSGGARVDYGVLAHTDRVWTSDSNDALDRLEIQRGCSFFFPSSVMGAHVGPRDCHITGRNVSIEMRAAVSMFGHMGIEMDPRELNDHEYNALKAAIALHKEHREFIHSADLYRLDSDDLSINFGLIDAQKTKALFAYNSVRETPRTAPNKLRFVGLDADAQYTLNLVWPVKFEEYRPSSIAAVNGQTFTGEALMQFGLQMPISFPQTSLIFELNKA
notes: mature ca. 80 kDa; E. coli Rosetta (DE3); GH36
B2: α-PsGal (Pseudoalteromonas sp. KMM 701; C494N) (protein)
chain: B1 chain with C494N
notes: as for B1

Substrate: O=[N+]([O-])c1ccc(O[C@H]2O[C@H](CO)[C@H](O)[C@H](O)[C@H]2O)cc1
Test: purified protein
Assay type: biochemical, Pseudoalteromonas sp. KMM 701
Settings: sodium phosphate (0.05 M in table footnote, 0.1 M in methods), pH 7.0, 20 °C

Protein	Km [mM]	Vmax [µM/min]	kcat [s⁻¹]	kcat/Km [M⁻¹ s⁻¹]
B1	0.40 ± 0.030	320	324 ± 3.5	820000
B2	0.30 ± 0.005	24	–	–
